Test results published in paper PMC2786168.

Key:
RNase R R572K = target: T1, RNase R R572K (Escherichia coli, UniProt P21499 1-813, R572K); assay: filter binding
T1 sequence: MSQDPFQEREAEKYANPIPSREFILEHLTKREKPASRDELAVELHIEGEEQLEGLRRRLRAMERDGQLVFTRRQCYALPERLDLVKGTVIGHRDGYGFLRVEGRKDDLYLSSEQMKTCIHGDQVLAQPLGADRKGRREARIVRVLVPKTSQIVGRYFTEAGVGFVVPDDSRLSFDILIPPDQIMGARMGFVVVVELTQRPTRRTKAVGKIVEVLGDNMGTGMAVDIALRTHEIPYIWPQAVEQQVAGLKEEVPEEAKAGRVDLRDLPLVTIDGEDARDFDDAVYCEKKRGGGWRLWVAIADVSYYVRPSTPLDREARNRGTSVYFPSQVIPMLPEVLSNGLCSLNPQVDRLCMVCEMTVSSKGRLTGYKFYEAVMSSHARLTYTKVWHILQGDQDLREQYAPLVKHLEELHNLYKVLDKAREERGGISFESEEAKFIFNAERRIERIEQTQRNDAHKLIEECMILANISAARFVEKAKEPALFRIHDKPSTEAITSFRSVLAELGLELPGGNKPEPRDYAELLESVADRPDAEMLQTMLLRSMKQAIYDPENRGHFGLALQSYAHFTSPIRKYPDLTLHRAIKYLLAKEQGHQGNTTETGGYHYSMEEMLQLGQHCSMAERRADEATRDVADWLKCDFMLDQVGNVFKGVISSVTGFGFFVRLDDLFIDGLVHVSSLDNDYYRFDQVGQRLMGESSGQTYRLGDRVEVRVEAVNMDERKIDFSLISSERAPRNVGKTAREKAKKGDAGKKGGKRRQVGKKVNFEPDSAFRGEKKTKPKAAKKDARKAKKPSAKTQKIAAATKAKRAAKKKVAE

RNase R wild-type = target: T2, RNase R wild-type (Escherichia coli, UniProt P21499 1-813); assay: filter binding
T2 sequence: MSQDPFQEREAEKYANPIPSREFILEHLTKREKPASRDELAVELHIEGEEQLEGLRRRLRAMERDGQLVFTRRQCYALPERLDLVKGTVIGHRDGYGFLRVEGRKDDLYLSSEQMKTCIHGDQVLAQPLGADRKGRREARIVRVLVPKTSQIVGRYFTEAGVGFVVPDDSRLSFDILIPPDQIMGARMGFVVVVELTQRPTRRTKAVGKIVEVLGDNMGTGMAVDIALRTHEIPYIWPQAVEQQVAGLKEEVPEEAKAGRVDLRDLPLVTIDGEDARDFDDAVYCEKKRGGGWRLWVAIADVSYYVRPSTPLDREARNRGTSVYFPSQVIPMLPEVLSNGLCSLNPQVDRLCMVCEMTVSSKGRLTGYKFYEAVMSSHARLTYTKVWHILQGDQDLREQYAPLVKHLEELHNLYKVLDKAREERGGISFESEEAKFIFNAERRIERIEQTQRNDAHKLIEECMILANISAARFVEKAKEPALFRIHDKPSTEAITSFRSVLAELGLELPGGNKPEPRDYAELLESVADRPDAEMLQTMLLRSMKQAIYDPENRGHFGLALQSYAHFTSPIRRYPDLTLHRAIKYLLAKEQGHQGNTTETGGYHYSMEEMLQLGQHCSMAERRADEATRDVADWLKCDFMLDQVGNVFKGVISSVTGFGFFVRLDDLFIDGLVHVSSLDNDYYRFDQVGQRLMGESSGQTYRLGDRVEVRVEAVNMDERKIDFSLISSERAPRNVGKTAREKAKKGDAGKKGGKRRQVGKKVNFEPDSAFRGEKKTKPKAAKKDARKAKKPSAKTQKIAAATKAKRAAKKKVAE

Binder AAAAAAAAAAAAAAAAA (ssRNA) [A17] has a Kd (RNase R R572K) of 0.5 ± 0.1 nM and a Kd (RNase R wild-type) of 0.8 ± 0.1 nM.
